Experimental data taken from the DeepSol protein solubility set.

experiment: soluble on expression in E. coli; label from the status in PepcDB or PDB records

Row | Sequence | soluble on expression in E. coli
1 | VISCDDVPEDLETDHLFSSQMVAVVAPEHELAQREAITFDEFFEHELVMFQHGYFHREFLDHVSEEHGFSMKSSFETNLLPLILSIVRQEFAITALLELVTQNEKGVVGIPFHPPVTLDLALAWRKEGYLSIADRTFIDFVKRYV | not soluble
2 | MSLENISQKYSCSIVPLAEKKIFSVNDGLNVILKSLEDTKAEDIVSIDIQGKSSLADYMVIASAHSQRHVSSVADHLLRTWKDSGYGRASVEGLTEGNWVLIDTGDIIIHLFRPEIRLFYNLEKMWLTPDLNNTKLALFGDH | not soluble
3 | MPGQPFGVYLHVPFCLTRCGYCDFNTYTPAQLGGVSPDRWLLALRAELELAAAKLDAPTVHTVYVGGGTPSLLGGERLATLLDMVRDHFVLAPDAEVSTEANPESTWPEFFATIRAAGYTRVSLGMQSVAPRVLATLDRVHSPGRAAAAATEAIAEGFTHVNLDLIYGTPGESDDDLVRSVDAAVQAGVDHVSAYALVVEHGTALARRVRRGELAAPDDDVLAHRYELVDARLSAAGFAWYEVSNWCRPGGECRHNLGYWDGGQWWGAGPGAHGYIGVTRWWNVKHPNTYAEILAGATLPVAGFEQLGADALHTEDVLLKVRLRQGLPLARLGAAERERAEAVLADGLLDYHGDRLVLTGRGRLLADAVVRTLLG | not soluble
4 | MSVLEGINSKALKTGNAGKNLKFKKIGDLPPPSPSPNTFRIYSMRFCPAAQRALIYASVKKIPSEVININLQQKPDWYFTKNYKGQVPTLEHAEGKKLVIESAVIPEYLDDIFPETKILPSDPYEKVQQKLLLERLSDQLTPAFGRVFRAIKNPEELKEKFESILKAFEEAESLLEGAFYSGTSSPGFVDYLIYPSFQRVYWLTFLLEIFPLPSDNFPGPGYPKLSQWFKAITAIPEVAAASQSTENGVGSCKEYMKGLPYFDYGL | not soluble
5 | MSQSRDLQGGKAFGLLKAQQEERLEGINKQFLDDPKYSNDEDLPSKLEAFKVKYMEFDLNGNGDIDIMSLKRMLEKLGVPKTHLELKRLIREVSSGSEETFSYSDFLRMMLGKRSAILRMILMYEEKNKEHKRPTGPPAKKAISELP | soluble
6 | GMSAKDVFHQVVKIALEKDGWQITNDPLTISVGGVNLSIDLGAEKLIAAEREGEKIAVEVKSFLERSSAISEFHTALGQFINYRGALRRRQPERVLYLAVPLTTYKTFFQLDFPKEMIAENQVKMLIYDVEQEVIFQWIN | soluble
7 | MAQSETVERILDAAEQLFAEKGFAETSLRLITSKAGVNLAAVNYHFGSKKALIQAVFSRFLGPFCASLEKELDRRQAKPEAQHATLEDLLHLLVSQAMAVKPRSGNDLSIFMRLLGLAFSQSQGHLRKYLEEVYGKVFRRYMLLVNEAAPKLPPIELFWRVHFMLGAAAFSMSGIKALRAMAETDFGVNTSTEQVMHLMVPFFAAGMRAESGIDDPLLAGAQLRPRNKTPAKA | soluble
8 | MADKKLDTQLVNAGRSKKYTLGAVNSVIQRASSLVFDSVEAKKHATRNRANGELFYGRRGTLTHFSLQQAMCELEGGAGCVLFPCGAAAVANSILAFIEQGDHVLMTNTAYEPSQDFCSKILSKLGVTTSWFDPLIGADIVKHLQPNTKIVFLESPGSITMEVHDVPAIVAAVRSVVPDAIIMIDNTWAAGVLFKALDFGIDVSIQAATKYLVGHSDAMIGTAVCNARCWEQLRENAYLMGQMVDADTAYITSRGLRTLGVRLRQHHESSLKVAEWLAEHPQVARVNHPALPGSKGHEFWKRDFTGSSGLFSFVLKKKLNNEELANYLDNFSLFSMAYSWGGYESLILANQPEHIAAIRPQGEIDFSGTLIRLHIGLEDVDDLIADLDAGFARIV | soluble
9 | MPPKTSEVARKLERLGFKPLPRRGKGGHRVYVHPDGRKVVLPLHSGEIPWGLFKTVLKQAGITEEEFRRA | soluble
10 | MGSDKIHHHHHHMIFSMSSLHDMRFICLRTAPLKNSAYLLSALLIIACQPTSPTEALTSENNEMVDMPLISADSVTITPDHILSIKPTRYQPSLGLQGRIDSIKQINLVAGQPLTVEQVLVSENQWVKKGTPLLTVRRQEIFNKPTMSDDPATDVDASLNTTASNIDRASASDNTSQTSDLITLRARFSGRVENLSVQAGQKIEAQTALLKLSDATELHFISTLPIEAESQISVGQTVNFTAEDRVDKFTGQVSKVQALKQPIQLLVYVNVINNEVSRNQLAPGMQVTGRVDYGQIEVGTIVPKNALHNVDLTQIQVPPYKPLRSLTANIWIIGQDQRLTRQPIEVIEYDPLTKQYLIAGISSDSLICLANLPIESKGKKVVVS | not soluble
11 | MILKRAYDVTPQKISTDKVRGVRKRVLIGLKDAPNFVMRLFTVEPGGLIDRHSHPWEHEIFVLKGKLTVLKEQGEETVEEGFYIFVEPNEIHGFRNDTDSEVEFLCLIPKEGGE | not soluble
12 | MMMDLNIRRVVLDVDKGLNRPTLVELAAAIEKVQGVEAVNIIVTEMDMETMGTNITVEGTNINYDELIETIENTGSAIHSVDEIAVGKRLIENVRRNQN | soluble
13 | MGSDKIHHHHHHMSDKFGEGRDPYLYPGLDIMRNRLNIRQQQRLEQAAYEMTALRAATIELGPLVRGLPHLRTIHRQLYQDIFDWAGQLREVDIYQGDTPFCHFAYIEKEGNALMQDLEEEGYLVGLEKAKFVERLAHYYCEINVLHPFRVGSGLAQRIFFEQLAIHAGYQLSWQGIEKEAWNQANQSGAMGDLTALQMIFSKVVSEAGESE | not soluble
14 | MGHHHHHHSHRKRPLLAPLCNGLINSYEDKSNDFVCPICFDMIEEAYMTKCGHSFCYKCIHQSLEDNNRCPKCNYVVDNIDHLYPNFLVNELILKQKQRFEEKRFKLDHSVSSTNGHRWQIFQDWLGTDQDNLDLANVNLMLELLVQKKKQLEAESHAAQLQILMEFLKVARRNKREQLEQIQKELSVLEEDIKRVEEMSGLYSPVSED | not soluble
15 | MADPGSVGHVFRRAFSWLPAQFASQSDAPVGAPRQFRSTEHLSIEAIAAFVDGELRMNAHLRAAHHLSLCAQCAAEVDDQSRARAALRDSHPIRIPSTLLGLLSEIPRCPPEGPSKGSSGGSSQGPPDGAAAGFGDRFADGDGGNRGRQSRVRR | soluble
16 | MTVLIAGAGIAGLSLGLTLHQIGVPFRIYEATAVLRPMGVGINLQPNAVRELLDLGLEAELDRIGVRTRQLGFYSKLGKTIWEEPRGIWAGYAWPQYSVHRGALQMMLYEALIARAGADCVVTGARAAGFETGPESATLILSDGRRVEGRLLIAADGIHSALRAQMYPNEGEPIWNGRVLWRATTRAPAYFGGGAMAMIGHDDLRLVSYPISEPDGDGMVEMNWIAEKRFPLDAAWKKEDWNRAADIGDFLPDFADWRFDWIDVPALIQGAEVVYEYPMVDRDPLPRWTGGSVTLMGDAAHPTYPVGSNGASQAILDARIIGARLLEHGITPRALAAYEAEVRPVTTAVGQANRAGGGPDGVLQRVEDLCGGDFDDIDTVIPHAELAAHAARYKSIAGFSIEELNARPRTIAEGARIPALEHHHHHH | not soluble
17 | GPGSMSRTQTSSKSVPKNIAVYCRVRPPVPNEKGHTFQNISYDDSDSRAIAVARKSGTKALEKTYLFNRVFRPTATQKDVYETFAKGAVDAAFDGQHGVLFVYGQTGSGKTFTISNDEPNNEGVLQRSMRDIWNRIASDTANDYSCSVSYVQLYNEILTDLLDDAKGKVRIQMGSEGRGDVVMVSDSTGMAIEREVKDYKSTMACFQVGLARKEMASTSMNSTSSRSHTIFTLNIVKAKKVVAVTV | not soluble
18 | MQEVHKWHNDLTGKKLVENLKKNLFDAYYFEDGSEVSKYIMNYVGTGTKIGFGGSVTVQSLNIAEQAMEKGAVILDHNDASLTQEEKMDIMRQQLTSDIFISSTNAITASGELVNIDGVGNRVSAIVFGPKKVIIVVGLNKLCKDVETAFERIKMQAAPKNMKRLGFLNPCIKTGYCVNCDAETRACRIYSVIKRRPMLTDMTVLVVGKSLGFLEHHHHHH | soluble
19 | MSLKEGKEFEYLFWVGSMGSYDNRSQKIAISFAKLLNHAGVSFAILGNKEKNSGDTPRRLGNEFLFQELAEKNISEFEKNDVKKIVTIDPHAYNLFKNEYPDFGFEGEVYHHTEVLAELVKNGKLRPQHPLHETITFHDSCYLGRYNEVYDPPREILKAIPGVQLVEMERSRETGMCCGAGGGLMWMEEETGNRINVARTEQALAVNPSVISSGCPYCLTMLGDGTKAKEAEDQVKTYDVVELLAQSVLGADLKMGEKQEGHHHHHH | not soluble
